Assay results taken from patent US20230295310A1 (ABCELLERA BIOLOGICS, published 2023).
Positions count from the first letter of the chain named.

B1: mAb 65 (antibody, V domains shown)
VH: QVQLVESGGGVVQPGRSLRLSCAASGFTFSGYGMHWVRQAPGKGLDWVAIIYYNGNNKYYADSVKGRFTISRDNSKNTLYLQMNSLRAEDTAVYYCARGGGYNWFDPWGQGTLVIVSS
VL: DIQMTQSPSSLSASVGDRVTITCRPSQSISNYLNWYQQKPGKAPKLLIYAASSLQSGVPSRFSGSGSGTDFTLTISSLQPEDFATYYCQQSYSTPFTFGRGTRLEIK
B2: mAb 81 (antibody, V domains shown)
VH: B1 VH with V5A, N54D, N56K, I115T
VL: DIQMTQSPSSLSASVGDRVTITCRPSQTISNYLNWYQQDPGKAPKLLIYAASSLQSGVPSRFSGSGSGTDFTLTISSLQPEDFATYYCQQSYSTPITFGRGTRLEIK
B3: mAb 83 (antibody, V domains shown)
VH: B1 VH
VL: B2 VL with T28I, S30I, D39K, I96F
B4: mAb 46 (antibody, V domains shown)
VH: EGQLVESGGGLVQPGGSLRLSCVASGFTLSSYTLNWVRQAPGKGLEWVSYISSTSRTIYYSDSVKGRFTISRDNAKNSLYLQMNSLRDEDTALYYCAREDYYDSSGFDYWGQGTLVTVSS
VL: AIRMTQSPSSFSASTGDRVTITCRASQGISSYLAWYQQKPGKAPKLLIYTASTLQSGVPSRFSGSGSGTDFTLTIRSLQSEDFATYYCQQYYSYPRTFGQGTKVEIK
B5: mAb 49 (antibody, V domains shown)
VH: B4 VH with G2V, Q13P, S30R, L34M, K43Q, V48I, M83V, Y109C
VL: B4 VL with S30F, S31N, T50S, A51T, S77G, F83L, Y94F, E105D
B6: mAb 51 (antibody, V domains shown)
VH: B4 VH with G2V, V23A, L34M, T54S, T69S, Y109N
VL: B4 VL
B7: mAb 42 (antibody, V domains shown)
VH: QAQLVQSGSELKKPGASVKVSCKASGYTFTKHSMNWVRQAPGQGLEWMGWINTNTGNPTYAQGFTGRFVFSLDTSVTTAYLQISSLKAEDTAVYYCAREGDYDFWSGFFNFDYWGQGTLVTVSS
VL: DIQMTQSPSSLSASVGDRVTITCRASQGIRNDLGWYQQKPGKAPKRLIYAASSLQSGVPSRFSGSGSGAEFTLTISSLQPEDFATYYCLQHNSYPRTFGQGTKVEIK
B8: mAb 55 (antibody, V domains shown)
VH: QVQLEQSGAEVKKPGASVKVSCKTSGYIFANYDINWVRQATGQGLEWMGWMNPKSGKAGYAQKFQGRVTMTSNTPINTAYMELSSLRSEDTAVYYCAREGHYDFWRGFYSFDYWGQGILVTVSS
VL: B7 VL with A50T, A69T, Y87F, H91Y, S93T, R96Y, V104L
B9: mAb 52 (antibody, V domains shown)
VH: QVQLVQSGAEVKKPGASVKVSCKASGYTFTSHDINWVRQATGQGLEWMGWLNPNSGKTGYAQKFQGRVTMARDTSMYTADMELSSLRFEDTAVYYCARVGHYDMWPGFFSFDYWGQGTLVTVSS
VL: B7 VL with V19I, T20I, G28D, G66R, A69T, Q79H, N92R, R96Y, K103N, V104L
B10: mAb 53 (antibody, V domains shown)
VH: QVQLVQSGAEVKKPGASVKVSCKASGYTFTSYDINWVRQATGQGLEWMGWMNPKSGKTGYAQKFQGRITMTRNTPISTVYMDLSSLRSEDTAVYYCAREGHYDFWTGYYSFDYWGQGTLVTVSS
VL: B7 VL with K39T, A69T, N92Y, R96Y, V104L
B11: mAb 44 (antibody, V domains shown)
VH: B7 VH with K31R, S33A, T77S, Q82K, A97V
VL: B7 VL with Y36F, K45T
B12: mAb 50 (antibody, V domains shown)
VH: B7 VH with K31R, S33A
VL: B7 VL with Y36F, K45T
B13: mAb 47 (antibody, V domains shown)
VH: B7 VH
VL: B7 VL with A69T
B14: mAb 54 (antibody, V domains shown)
VH: EVQLEESGGGLVQPGGSLRLSCAASGFTFSRYSMNWVRQAPGKGLEWFSYISSSSRTIYYADSVKGRFTMSRDNAKNSLYLQMNSLRDEDTAVYFCARGDYYDSEGMDVWGKGTTVTVSS
VL: DIQMTQSPSTLSASVGDRVTITCRASQTITTWLAWYQQKPGKAPKLLIYKASTLESGVPSRFSGSGSGTEFTLTISSLQPDDFATYHCQQYKTFSYTFGQGTKLDIK
B15: mAb 236 (antibody, V domains shown)
VH: QVKLVESGGGVVQPGRSLRLSCVASGFTFSGYGMHWVRQAPGKGLEWVAIIYYDGKNKYYADSAKGRFTVSRDNSKNTLYLQLNSLRAEDTAVYYCVRGPGYNWFDSWGQGTLVTVSS
VL: EIVLTQSPDFQSVTPKEKVTITCRASQSIGSNLHWYQQKPDQSPKLLIKYTSQSFSGVPSRFSGSGSGTDFTLTINSLEAEDAATYYCHQSSSLPYTFGQGTKLEIK
notes: VH/VL only
B16: mAb 242 (antibody, V domains shown)
VH: B15 VH with V2G, A40V, G42N, A64V, V70I, T78M, L83M, A88V, S107P
VL: B15 VL with S28N, N32S, Y50L
notes: VH/VL only
B17: mAb 245 (antibody, V domains shown)
VH: B15 VH with A61V, A64V, V70I, S107L, S117A
VL: B15 VL with N32S, T51A
notes: VH/VL only
B18: mAb 243 (antibody, V domains shown)
VH: B15 VH with V2G, G42N, A64V, V70I, T78M, L83M, A88V, S107P
VL: B15 VL with S28N, N32S, Y50H, D70A
notes: VH/VL only
B19: mAb 272 (antibody, V domains shown)
VH: EIQLVESGGGLVQPGESLKLSCAGSGFTFSVSAMHWVRQASGKGLEWVGRIRNKANSYATAYAASVKGRFTLSRDDSKNTAYLQMNSLKTEDTAVYYCSSYYYLSGTYYNYWGQGTLVTVSS
VL: B7 VL with G28V, Y49H, A50S, S56G, A69T, L89Q, S93V, Y94N, R96C, V104L
notes: VH/VL only
B20: mAb 271 (antibody, V domains shown)
VH: B19 VH with N86D
VL: B7 VL with G28V, Y49H, A50S, S56G, A69T, L89Q, S93V, Y94N, R96C, V104L
notes: VH/VL only
B21: mAb 270 (antibody, V domains shown)
VH: B19 VH with A63D, K78R
VL: B7 VL with G28V, Y49H, A50S, S56G, A69T, L89Q, S93V, Y94N, R96C, V104L
notes: VH/VL only
B22: mAb 90 (antibody, V domains shown)
VH: EVQLVESGGGLVQPGGSLKLSCAASGFTFSGSAMHWVRQASGKGLEWVGRIRTKPNSYATSYAASVKDRFTISRDDSKNTAYLQMNSLKTEDTAVYYCIRGELEPWGQGTLVTVSS
VL: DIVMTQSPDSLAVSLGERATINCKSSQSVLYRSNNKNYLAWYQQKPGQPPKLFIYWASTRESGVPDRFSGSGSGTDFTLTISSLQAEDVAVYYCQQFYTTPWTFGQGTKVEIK
B23: mAb 152 (antibody, V domains shown)
VH: QVQLVQSGAEVKKPGASVKVSCKASGYTFTAYHTHWVRQAPGQGLEWMGWIYPKSGRTTYTQKFQGRVTMTRDTSISTVYMELSRLKSDDTAVYYCARVGALLFDYWGQGTLVTVSS
VL: not shown
B24: mAb 109 (antibody, V domains shown)
VH: QVQLVESGGGVVQPGRSLRLSCVASGFPFRSYGMHWVRQAPGKGLEWVAFIWYDGSNKYYADSVRGRFTISRDNFKKMVYLQMNSLRAEDTAVYYCARDLAGIYAFDVWGQGTVVTVSS
VL: EIVMTQSPATLSVSPGERATLSCRASQSVSSNLAWYQQKPGQAPRLLIYGASTRATGIPARFSGSGSGTEFTLTVSSLQSEDFAIYYCQQYNNWRPLTFGGGTKVEIK

biological target: T1, human CD3 expressed on cells (human, UniProt P07766 23-207; P04234 22-171; P09693 23-182); test: flow cytometry, 25 nM
T1 construct: whole, on cells; CD3 complex on Jurkat cells and on human primary T cells
T1 sequence (P07766 23-207, chain 1 of 3): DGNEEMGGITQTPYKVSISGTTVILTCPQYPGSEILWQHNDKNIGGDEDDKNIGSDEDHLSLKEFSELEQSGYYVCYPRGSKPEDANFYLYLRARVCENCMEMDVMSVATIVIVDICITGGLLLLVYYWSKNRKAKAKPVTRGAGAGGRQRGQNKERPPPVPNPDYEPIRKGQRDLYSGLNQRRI
T1 sequence (P04234 22-171, chain 2 of 3): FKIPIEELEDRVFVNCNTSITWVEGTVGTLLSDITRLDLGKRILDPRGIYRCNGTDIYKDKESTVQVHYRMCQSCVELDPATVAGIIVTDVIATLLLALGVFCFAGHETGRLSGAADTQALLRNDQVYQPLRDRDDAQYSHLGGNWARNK
T1 sequence (P09693 23-182, chain 3 of 3): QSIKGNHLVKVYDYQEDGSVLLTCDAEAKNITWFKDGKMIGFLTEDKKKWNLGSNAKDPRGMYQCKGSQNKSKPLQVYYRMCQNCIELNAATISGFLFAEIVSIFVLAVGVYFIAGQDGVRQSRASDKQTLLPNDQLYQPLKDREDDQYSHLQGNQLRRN
Method: (§1) Purified antibodies were confirmed to bind CD3 expressed on cells using the CytoFLEX S or LX flow cytometers (Beckman Coulter). Antibodies were diluted to 25 nM in FACS buffer (PBS+2% FBS) and were incubated with CD3-expressing cells for 30 minutes at 4° C. […] The median fluorescence intensity of the binding signal for each antibody was normalized to the isotype control to obtain a fold over isotype value. An antibody with a fold over isotype (FOI) of ≥10 was considered to be positive for binding.

Row | Binder | Human primary T Cell Binding (FOI) | Jurkat Cell Binding (FOI)
1 | B1 | 199 | 184
2 | B2 | 158 | 165
3 | B3 | 173 | 161
4 | B4 | 96.9 | 107
5 | B5 | 191 | 178
6 | B6 | 102 | 99.8
7 | B7 | 96.2 | 111
8 | B8 | 104 | 151
9 | B9 | 185 | 181
10 | B10 | 34.8 | 44.6
11 | B11 | 110 | 131
12 | B12 | 86.4 | 92.5
13 | B13 | 136 | 112
14 | B14 | 98.5 | 111

biological target: T2, cynomolgus monkey CD3 expressed on cyno primary T cells (cynomolgus monkey, UniProt Q95LI5 22-198; Q95LI8 22-171; Q95LI7 23-181); test: flow cytometry, cyno primary T cells
T2 construct: whole, on cells; CD3 complex on purified cynomolgus monkey CD3 pan T cells; also called cyno CD3
T2 sequence (Q95LI5 22-198, chain 1 of 3): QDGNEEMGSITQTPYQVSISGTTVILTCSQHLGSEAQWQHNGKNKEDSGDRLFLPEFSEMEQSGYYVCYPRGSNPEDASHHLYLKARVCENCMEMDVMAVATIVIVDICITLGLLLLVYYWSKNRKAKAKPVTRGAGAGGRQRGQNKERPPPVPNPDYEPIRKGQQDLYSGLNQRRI
T2 sequence (Q95LI8 22-171, chain 2 of 3): as the sequence (P04234 22-171, chain 2 of 3) above, with I5V, N15K, I20V, S32T, D33N, I34N, T64A, S74N, V83L, H141R counted along it
T2 sequence (Q95LI7 23-181, chain 3 of 3): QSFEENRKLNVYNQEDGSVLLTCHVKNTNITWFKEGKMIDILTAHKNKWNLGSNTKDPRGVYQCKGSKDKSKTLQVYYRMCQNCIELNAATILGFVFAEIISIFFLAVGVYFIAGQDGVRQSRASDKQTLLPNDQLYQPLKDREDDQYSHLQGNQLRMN
Method: as §1

Row | Binder | binding result
15 | B15 | no binding (tested: FOI <10 (FOI >=10 = positive); 25 nM)
16 | B16 | no binding (tested: FOI <10 (FOI >=10 = positive); 25 nM)
17 | B17 | no binding (tested: FOI <10 (FOI >=10 = positive); 25 nM)
18 | B18 | no binding (tested: FOI <10 (FOI >=10 = positive); 25 nM)
19 | B19 | no binding (tested: FOI <10 (FOI >=10 = positive); 25 nM)
20 | B20 | no binding (tested: FOI <10 (FOI >=10 = positive); 25 nM)
21 | B21 | no binding (tested: FOI <10 (FOI >=10 = positive); 25 nM)

biological target: T3, cynomolgus monkey CD3 expressed on primary T cells (cynomolgus monkey, UniProt Q95LI5 22-198; Q95LI8 22-171; Q95LI7 23-181); test: flow cytometry, 25 nM, cyno primary T cells
T3 construct: whole, on cells; CD3 complex on purified cynomolgus monkey T cells; also called cyno CD3
T3 sequence (Q95LI5 22-198, chain 1 of 3): as the sequence (Q95LI5 22-198, chain 1 of 3) above
T3 sequence (Q95LI8 22-171, chain 2 of 3): as the sequence (P04234 22-171, chain 2 of 3) above, with I5V, N15K, I20V, S32T, D33N, I34N, T64A, S74N, V83L, H141R counted along it
T3 sequence (Q95LI7 23-181, chain 3 of 3): as the sequence (Q95LI7 23-181, chain 3 of 3) above
Method: as §1

Row | Binder | binding result
22 | B22 | no binding (tested: FOI >=10 = positive)
23 | B23 | no binding (tested: FOI >=10 = positive)
24 | B1 | no binding (tested: FOI >=10 = positive)
25 | B2 | no binding (tested: FOI >=10 = positive)
26 | B3 | no binding (tested: FOI >=10 = positive)
27 | B4 | no binding (tested: FOI >=10 = positive)
28 | B5 | no binding (tested: FOI >=10 = positive)
29 | B6 | no binding (tested: FOI >=10 = positive)
30 | B24 | no binding (tested: FOI >=10 = positive)
31 | B7 | no binding (tested: FOI >=10 = positive)
32 | B8 | no binding (tested: FOI >=10 = positive)
33 | B9 | no binding (tested: FOI >=10 = positive)
34 | B10 | no binding (tested: FOI >=10 = positive)
35 | B11 | no binding (tested: FOI >=10 = positive)
36 | B12 | no binding (tested: FOI >=10 = positive)
37 | B13 | no binding (tested: FOI >=10 = positive)
38 | B14 | no binding (tested: FOI >=10 = positive)
